We go through 71 molecules from US20250011363A1, “OPTIMIZED SHORTENED PEPTIDE THAT BINDS TO ACETYLCHOLINE RECEPTOR, AND USE THEREOF” (SKINMED CO., LTD., priority 2021, published 2025).

The target in experiment [1] is acetylcholine receptor. Briefly: SPR, receptor immobilized on CM5 chip, peptide 10 uM. In general terms: In SPR one partner is held on a chip, and binding of the other changes the refractive index at the surface.
Experiment [2] concerns the target acetylcholine receptor. Briefly: SPR, AchR on chip, peptide 10 uM.

In experiment [1], RLVQKR [6mer-2-442] showed a Binding affinity (RU) of 139 RU.
Same read-out and setting: the same measure for RSVQKK [6mer-2-454]: 133 RU.
KSQRKR [6mer-2-441] gave a Binding affinity (RU) in experiment [1] of 139 RU.
In experiment [1], KLLTRR [6mer-2-463] displayed a Binding affinity (RU) of 124 RU.
Consider RQLSR [5mer-32], for which, in experiment [2], the Binding affinity (RU) turned out to be 75 RU.
Molecule RRFTK [5mer-326] returned a Binding affinity (RU) in experiment [2] of 68 RU.
RGRCRR [6mer-2-449]: in experiment [1], the Binding affinity (RU) was 154 RU.
For the molecule RLVRKK [6mer-2-453], the Binding affinity (RU) in experiment [1] amounted to 141 RU.
The same measure, in the same setting: the same measure for RLVCKR [6mer-2-445]: 145 RU.
Molecule KVFLKK [6mer-2-428] displayed a Binding affinity (RU) in experiment [1] of 142 RU.
In experiment [1], KGLYKR [6mer-2-452] had a Binding affinity (RU) of 146 RU.
RWQYK [5mer-35]: the Binding affinity (RU) in experiment [2] is 80 RU.
RLLTRR [6mer-2-466]: the Binding affinity (RU) in experiment [1] came to 142 RU.
On the same count and under the same terms, the same measure for RWVYKR [6mer-2-435]: 154 RU; for RRVYKR [6mer-2-457]: 146 RU.
RRFQRR [6mer-2-458]: the Binding affinity (RU) in experiment [1] was determined as 122 RU.
With RVLQR [5mer-333], the Binding affinity (RU) in experiment [2] was 67 RU.
Same read-out and setting: the same measure for RGIQR [5mer-331]: 79 RU; for KSLTR [5mer-335]: 56 RU.
Molecule KLQTKK [6mer-2-425] had a Binding affinity (RU) in experiment [1] of 145 RU.
Still for that read-out and setting: the same measure for KLFSRK [6mer-2-459]: 139 RU.
Still for that read-out and setting: the same measure for RWIQKR [6mer-2-433]: 139 RU.
Same read-out and setting: the same measure for RQYCRR [6mer-2-443]: 122 RU; for RQRYRK [6mer-2-450]: 123 RU; for KLILKR [6mer-2-431]: 135 RU.
Consider RLLCRK [6mer-2-438], for which the Binding affinity (RU) in experiment [1] is 131 RU.
RRFCR [5mer-329] registered a Binding affinity (RU) in experiment [2] of 79 RU.
Consider KRIRK [5mer-34], for which the Binding affinity (RU) in experiment [2] worked out at 82 RU.
In turn, KVVRKR [6mer-2-432] registered a Binding affinity (RU) in experiment [1] of 148 RU.
Turning to RWQLR [5mer-330], the Binding affinity (RU) in experiment [2] came to 86 RU.
The same measure, in the same setting: the same measure for RRISK [5mer-33]: 59 RU.
With RWVYKK [6mer-2-417], the Binding affinity (RU) in experiment [1] turned out to be 151 RU.
On the same count and under the same terms, the same measure for KQLSKK [6mer-2-440]: 153 RU; for KSVTKR [6mer-2-456]: 147 RU.
For KGFCR [5mer-29], the Binding affinity (RU) in experiment [2] worked out at 63 RU.
KQVCKK [6mer-2-437]: in experiment [1], the Binding affinity (RU) was determined as 121 RU.
The same measure, in the same setting: the same measure for KSFRKK [6mer-2-464]: 135 RU; for KQYSRR [6mer-2-467]: 142 RU.
RVLCR [5mer-327] gave a Binding affinity (RU) in experiment [2] of 86 RU.
On the same count and under the same terms, the same measure for RRLQR [5mer-31]: 65 RU.
KGVSKR [6mer-2-465]: the Binding affinity (RU) in experiment [1] worked out at 122 RU.
Still for that read-out and setting: the same measure for RWYSKR [6mer-2-455]: 135 RU; for RVIRRK [6mer-2-434]: 154 RU.
Still for that read-out and setting: the same measure for RSRYKK [6mer-2-419]: 154 RU.
In experiment [1], RVQYKK [6mer-2-418] came in with a Binding affinity (RU) of 121 RU.
Molecule RWVLK [5mer-328] showed a Binding affinity (RU) in experiment [2] of 61 RU.
The same measure, in the same setting: the same measure for RQQQR [5mer-26]: 65 RU.
The molecule RLYCKK [6mer-2-424] gave a Binding affinity (RU) in experiment [1] of 139 RU.
The same measure, in the same setting: the same measure for RSFRRR [6mer-2-448]: 128 RU.
As for RRYCR [5mer-332], in experiment [2], the Binding affinity (RU) stood at 85 RU.
In experiment [1], KGQRRK [6mer-2-426] came in with a Binding affinity (RU) of 141 RU.
Consider RLLSR [5mer-28], for which, in experiment [2], the Binding affinity (RU) amounted to 74 RU.
In experiment [1], RWRQRK [6mer-2-429] displayed a Binding affinity (RU) of 123 RU.
Same read-out and setting: the same measure for RQLQKK [6mer-2-446]: 153 RU.
Still for that read-out and setting: the same measure for RSQCRK [6mer-2-460]: 139 RU; for KVLYKR [6mer-2-436]: 148 RU.
The molecule KGYLR [5mer-27] registered a Binding affinity (RU) in experiment [2] of 67 RU.
Turning to RLQYRK [6mer-2-423], the Binding affinity (RU) in experiment [1] was found to be 154 RU.
For RLITRR [6mer-2-422], the Binding affinity (RU) in experiment [1] stood at 154 RU.
KWFSKR [6mer-2-439]: in experiment [1], the Binding affinity (RU) was 153 RU.
Regarding KSQLR [5mer-30], the Binding affinity (RU) in experiment [2] came out at 70 RU.
In turn, KQICKR [6mer-2-462] came in with a Binding affinity (RU) in experiment [1] of 145 RU.
On the same count and under the same terms, the same measure for RWFRRR [6mer-2-430]: 139 RU.
For the molecule KSVCRR [6mer-2-461], the Binding affinity (RU) in experiment [1] is 149 RU.
On the same count and under the same terms, the same measure for RRQYRK [6mer-2-420]: 128 RU; for RGRCKK [6mer-2-451]: 148 RU.
In the case of RLQRRR [6mer-2-427], in experiment [1], the Binding affinity (RU) worked out at 147 RU.
Still for that read-out and setting: the same measure for RQRLKK [6mer-2-444]: 141 RU; for KVICRK [6mer-2-421]: 124 RU; for RVYTKK [6mer-2-447]: 139 RU.
As for KRFYK [5mer-334], the Binding affinity (RU) in experiment [2] was 64 RU.
